Results published in PMC8325959.
One block for each substance: values may come before it.

Biological target: recombinant human GST–PBD (UniProt P53350)
Test: in vitro binding assay, western blot quantification
Conditions: read off a plot

Sequence of UniProt P53350 (P53350 whole entry, looked up): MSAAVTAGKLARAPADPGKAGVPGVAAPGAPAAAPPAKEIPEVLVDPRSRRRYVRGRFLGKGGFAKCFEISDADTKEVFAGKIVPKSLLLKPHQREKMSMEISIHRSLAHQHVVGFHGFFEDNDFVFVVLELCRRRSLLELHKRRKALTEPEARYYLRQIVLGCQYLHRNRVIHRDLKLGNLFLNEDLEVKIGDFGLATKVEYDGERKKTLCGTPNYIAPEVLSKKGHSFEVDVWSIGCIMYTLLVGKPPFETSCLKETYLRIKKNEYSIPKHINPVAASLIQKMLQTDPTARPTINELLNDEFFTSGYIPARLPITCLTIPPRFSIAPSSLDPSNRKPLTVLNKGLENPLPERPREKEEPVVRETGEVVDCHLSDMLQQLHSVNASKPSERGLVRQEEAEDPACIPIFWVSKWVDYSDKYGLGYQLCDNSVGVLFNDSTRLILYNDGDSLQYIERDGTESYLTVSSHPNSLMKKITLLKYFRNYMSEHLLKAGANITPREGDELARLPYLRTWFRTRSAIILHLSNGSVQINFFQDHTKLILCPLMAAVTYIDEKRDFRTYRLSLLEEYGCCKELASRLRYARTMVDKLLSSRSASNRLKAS

Substance: MBP–CTa (WT Ana1 CTa fragment), pre-treated with PLK1 S10T
response (single repeat PLK1 + CTa, MBP–CTa pre-treated with PLK1 (+), parent: est. 1.0): 1.1 a.u.

response (repeat PLK1 #1, MBP–CTb pre-treated with PLK1 (+), parent: est. 1.7): 1.1 a.u.
response (repeat PLK1 #2, MBP–CTb pre-treated with PLK1 (+), parent: est. 1.9): 1.5 a.u.
response (repeat PLK1 #3, MBP–CTb pre-treated with PLK1 (+), parent: est. 1.8): 1.4 a.u.
response (repeat PLK1 #4, MBP–CTb pre-treated with PLK1 (+), parent: est. 2.2): 1.3 a.u.
Substance: MBP–CTb (WT Ana1 CTb fragment), phosphorylated by PLK1 in vitro (from UniProt Q9VC64) S10T

response (repeat Aurora #1, MBP–CTb pre-treated with Aurora A (+), parent: est. 1.4): 1.2 a.u.
response (repeat Aurora #2, MBP–CTb pre-treated with Aurora A (+), parent: est. 1.5): 1.2 a.u.
Substance: MBP–CTb (WT Ana1 CTb fragment), phosphorylated by Aurora A in vitro S10T

response (repeat Aurora #1, no kinase (-), parent: est. 1.4): 1 a.u.
response (repeat Aurora #2, no kinase (-), parent: est. 1.3): 1 a.u.
response (repeat PLK1 #1, no kinase (-), parent: est. 1.1): 1 a.u.
response (repeat PLK1 #2, no kinase (-), parent: est. 1.2): 1 a.u.
response (repeat PLK1 #3, no kinase (-), parent: est. 1.3): 1 a.u.
response (repeat PLK1 #4, no kinase (-), parent: est. 1.3): 1 a.u.
Substance: MBP–CTb (WT Ana1 CTb fragment), pre-treated with buffer S10T
